The source of these data is patent US9944712B2, “TLR3 binding agents” (INNATE PHARMA, priority 2012, dated 2018).

The subject of one assay is COPD mouse model. The assay is described as follows: COPD mouse model (Elastin and LPS). In kind it is in vivo. The settings on record: drug combination study, FIG. 5E. On the procedure: All mice were treated at days 0, 7, 14 and 21 with Elastin and LPS (i.n.), to induce COPD. At day 28 mice were sacrificed for analysis.
The cellular infiltrates into airways was measured by analysis of bronchoalveolar lavage (BAL) fluid by differential cell count on day 28. The oxygenation of venous blood was measured by gasometry on day 28. The level inflammatory mediators in BALF, through the analysis for protein levels of TNF-alpha, IL-6, IL-17A and IP-10 was performed by multiplex assay. […] Statistical analysis was performed on all data utilizing a Student's t test: ‘*’ p<0.05; ‘**’ p<0.005; ‘***’ p<0.0005.
Four groups of mice were treated as follows: • 1 group of mice with a vehicle (PBS, i.p., twice per week). • 1 group of mice with the anti-mouse TLR3 28G7 antibody administration (i.p., 500 μg/per mouse, […]; antagonist of PDE-4) (3 mg/kg, oral, five times per week). • 1 group of mice with both roflumilast and 28G7 antibody, each agent according to the schedule used as single agent.
All mice were treated with Elastin and LPS (i.n.), to induce COPD and sacrificed as in study A.
The cellular infiltrates into airways was measured by analysis of bronchoalveolar lavage (BAL) fluid by differential cell count as in Study A.

The target in another assay is human TLR3 (Homo sapiens, UniProt O15455). The assay is described as follows: 293T-TLR3-ISRE luciferase reporter assay. In kind it is cell-based. The settings on record: dsRNA TLR3 agonists. From the text: A reporter gene assay using as promoter ISRE (IFN-stimulated response element) and as reporter gene and protein luciferase was set up. A 293T cell line (ATCC, #CRL-1573) was stably transfected with pISRE-luc plasmid (#219089—Stratagene), further selected by cloning as inducing optimal response to IFN-alpha stimulation and referred to as control 293T-ISRE. This cell line was further stably transfected with pUNO-humanTLR3 plasmid (#puno-htlr3—InVivogen) and referred to as 293T-TLR3-ISRE.
Efficacy assay was performed as described: on day 0, cells are seeded at 4×10^5 cells/mL in complete culture medium in 96-well culture plate (100 μl/well). Cells are first incubated at 37° C. for 20 hours, then 50 μL of medium are discarded and cells are activated with 25 μl/well final of fixed amounts of polyAU together with increasing concentrations of anti-TLR3 antibodies. Cells incubated with fresh medium will be used as background luciferase activity (50 μl/well). Cells are incubated at 37° C. for 6 hours. 100 μL of freshly thawed Steady Glo (Promega) are added to each well, plates were incubated 10 min at RT in the dark and the light emitted in each well is quantified as Count Per Second (CPS) on a gamma-counter (TopCount) apparatus.
Antibodies were tested for inhibition of TLR3 signaling in a luciferase based reporter gene activity (293T-TLR3-ISRE). Engagement of TLR3 receptor using TLR3-agonists such as poly (I:C) has been reported to activate the type-IFN pathway including the promoter ISRE (Wietek et al. J. Biol. Chem., 278 (51), p50923, 2003). Briefly, dsRNA TLR3 agonists were used to induce TLR3 signaling in the reporter assay in the presence of anti-TLR3 antibodies, and TLR3 signaling was assessed. […] Each antibody is compared with reference antibody 31C3.

A further assay has as its system TLR3 mutant polypeptides. The assay is described as follows: FACS staining of cells expressing TLR3 mutant polypeptides (epitope mapping). The class given is binding, human. The settings on record: for binding to wild type TLR3 and mutants K145E, D116R, E171A, K182E or N196A: FACS; for binding to TLR3 in presence of the mutation K145E or K182E: hybridoma clone screening. As to the method: Mutagenesis was performed on wild type human TLR3 inserted into a pcDNA3.1 vector. After sequencing, the vectors containing the mutated sequences were prepared as Maxiprep using the Promega PureYield™ Plasmid Maxiprep System. Vectors were then used for HEK-293T cell transfection using Invitrogen's Lipofectamine 2000 according to the manufacturer instructions.
All the Mx-R primers were used with the following 5′ primer […] (SEQ ID NO: 121). All the Mx-F primers were used with the following 3′ primer […] (SEQ ID NO: 122). The sequences amplified were run on agarose gel then purified using the Qiagen Gel Extraction kit. The two PCR product generated for each mutant were then ligated into a pcDNA3.1 vector, digested with the restriction enzyme NheI and NotI, with the InFusion system (Clontech) according to the manufacturer's instructions.
After sequencing, the vectors containing the mutated sequences were prepared as Maxiprep using the Promega PureYield™ Plasmid Maxiprep System. Vectors were then used for HEK-293T cell transfection using Invitrogen's Lipofectamine 2000 according to the manufacturer instructions.
(§1) The mature wild-type or mutant TLR3 sequence was fused to the CD32 transmembrane and intracellular domains as described by De Bouteiller et al. (2005) J. Biol. Chem. 280(46): 38133-38145. A first round of PCR was performed to introduce a V5 tag in N-terminal position of the TLR3-CD32 fusion protein and a second round—using the first PCR as a template—to introduce the TLR3 leader peptide in the construct. The PCR product was TA-cloned into the pGEMTeasy vector for sequencing and finally cloned into the pcDNA3.1 vector using the NheI and NotI restriction sites.
(§2) Following two wash cycles, cell MFI was analyzed on a FACS Canto II cytometer. With the aim to study the effect of pH on mAb affinity, staining was performed in staining buffer (0.2% BSA, 2 mM EDTA, 0.02% Sodium Azoture) pH7.4 or in citric acid-acidified staining buffer pH5.6.
Secondary screening was performed as in immunization #1, above. Potentially interesting hybridomas were cloned by limiting dilution techniques in 96-wells plates, and clones were tested in the same series of secondary screens as for hybridomas. With the aim to compare hybridomas to our reference anti-TLR3 mAbs, the hybridomas were amplified and their supernatants were purified. Purified mAbs were tested in a gene-reporter assay.
Antibodies were then tested for binding to further set of mutants in the N-terminal portion of TLR3 to identify new epitopes. Antibodies were therefore tested for binding to TLR3 mutants. TLR3 mutant polypeptides having mutations in positions Q44H and V45I, R64Q and R65Q, T86S and K89Q, K97I and M100L, K117Q and A120V, Q136H, N140S, V144K and K145N, K147A, K163A, Q167G, Q184L and K187R, Q184L and K187Q, D192E and A195G, Q208P and 1209L, H218Q, A219T, G234N and S236H, L243W and A246S, S112A. Q113S. and S115A, and K137S and K139A (reference to SEQ ID NO: 1) were prepared as described herein in the Materials and Methods and anti-TLR3 antibody staining to cells expressing TLR3 mutant polypeptides was assessed by FACS.

Assay [1] deals with T1, human TLR3 solely at the cell surface (TLR3/CD32-expressing 293T cells) (Homo sapiens, UniProt O15455).
T1 construct: transiently transfected with the wild-type or mutant TLR3 ECD-CD32 construct; expressed in transfected cells; host or cells: HEK293T, transient, pcDNA3.1
The assay is described as follows: Titration on HEK293T cells expressing TLR3 ECD-CD32 solely at the cell surface (FACS). In kind it is binding. Particulars: neutral pH. On the procedure: as §1, §2
Additionally, binding (e.g. affinity) to cell surface TLR3 at neutral pH may differ from that of endosomally-expressed TLR3 at acidic pH. Antibodies were tested for binding to cells expressing human TLR3 solely at the cell surface (TLR3/CD32-expressing 293T cells), at neutral pH conditions since pH could potentially affect TLR3 conformation.

With `O=C(Nc1c(Cl)cncc1Cl)c1ccc(OC(F)F)c(OCC2CC2)c1` [Roflumilast, roflumilast], the “infiltration of neutrophils into the airways (BAL differential cell count)” value in the assay with COPD mouse model (28G7 i.p. 500 μg twice per week, roflumilast 3 mg/kg oral five times per week) was “decreased infiltration of neutrophils”. For the same molecule, the “BAL macrophages and lymphocytes” value in the assay with COPD mouse model is given as “decreases in macrophages”.

B1: 37B7: rat anti-human TLR3 monoclonal antibody; VH SEQ ID NO: 36, VL SEQ ID NO: 37 (antibody, listed as Rattus norvegicus, V domains shown)
VH: QVQLQQSGTELVKPGSSVKISCKASGYTFTSNYMHWIRQLPGNGLEWIGWIFPGDGDTNYNQKFNGKATLTADKSSSTAYMQLSSLTSEDYAVYFCARSDGDWYFDFWGPGTMVTVSS
VL: DIQMTQSPGSLSASLGETVTIQCQASEDIYSGLAWYQQKPRKSPQLLISAASRLQDGVPSRFSGSGSGTQYSLKISSMQTEDEGVYFCQQGVKYPNTFGPGTKLELK
Turning to B1, the “inhibition of dsRNA-induced TLR3 signaling, potency compared with antibody 31C3” value (“inhibition … compared with antibody 31C3” below) with human TLR3 is listed as “more potent”. Also, in the assay with TLR3 mutant polypeptides, the “binding to wild type TLR3 and mutants K145E, D116R, E171A, K182E or N196A” value (from here on “binding … K182E or N196A”) is “did not show any loss of binding”; the “binding to TLR3 in presence of the mutation K145E or K182E” value (shortened to “binding to TLR3 in presence”) is reported as “bound TLR3”.

B2: 11E1: mouse anti-human TLR3 monoclonal antibody; VH SEQ ID NO: 3, VL SEQ ID NO: 4 (antibody, listed as Mus musculus, V domains shown)
VH: QVQLQQPGAELVRPGASVKLSCKASGYTFTNYWMNWVKQRPGQGLEWIGMIDPSDSETHYNQMFKDKATLTVDKSSSTAYMQLSSLTSEDSAVYYCARGGASSDYYYFDYWGQGTTLTVSSASTK
VL: ETTVTQSPASLSMAIGEKVTIRCITSTDIHDDINWYQQKPGEPPKLLISEGNTLRPGVPSRFSSSGYGTDFVFTIENMLSEDVADYYCLQSDNLPRTFGGGTKLEIKRT
On to B2, for which the “binding to surface-expressed human TLR3” value in assay [1] is recorded as “strong binding”. For the same molecule, the “inhibition … compared with antibody 31C3” value with human TLR3 is reported as “more potent”. Also, in the assay with TLR3 mutant polypeptides, the “binding … K182E or N196A” value is on record as “did not show any loss of binding”; the “binding to TLR3 in presence” value was “bound TLR3”.

B3: 7G11: rat anti-human TLR3 monoclonal antibody; VH SEQ ID NO: 47, VL SEQ ID NO: 48 (antibody, listed as Rattus norvegicus, V domains shown)
VH: EVQLQQYGAELGKPGTSVKLSCKVSGYNITYTYMHWVNQRPGKGLEWIGRIDPANGNTIYGEKFKNKATLTADTSSNTAYMQLSQLKSDDTAIYFCAMGEFDYFDHWGQGVMVTVSS
VL: DIQMTQSPASLSASLGETVSIECLASEDISNDLAWYQQKSGKSPQVLIYAASRLEDGVPSRFSGSGSGTRYSLKISGMQPEDEADYFCQQSYKYPVTFGSGTKLEIK
In the case of B3, in assay [1], the “binding to surface-expressed human TLR3” value is on record as “strong binding”. Besides, the “inhibition … compared with antibody 31C3” value in the assay with human TLR3 was “more potent”. Besides, in the assay with TLR3 mutant polypeptides, the “binding … K182E or N196A” value was “did not show any loss of binding”; the “binding to TLR3 in presence” value is given as “bound TLR3”.

B4: 31F6: rat anti-human TLR3 monoclonal antibody; VH SEQ ID NO: 14, VL SEQ ID NO: 15 (antibody, listed as Rattus norvegicus, V domains shown)
VH: EVQLQQSGAELGKPGTSVKLSCKVSGYNIRYTYMHWVNQRPGKGLEWIGRIDPANGDSIYGEDFKTKATLTADTSSNTAYMQLSQLKSDDTAIYFCAMGEFDYFDYWGQGVMVTVSSASTK
VL: DIQMTQSPPSLSASLGETVSIECLASEGISNDLAWYQQRSGKSPQLLIYAASRLQDGVPSRFSGSGSGTRYSLKISGMQPEDEADYFCQQNYKYPLTFGSGTKLEIK
B4: the “binding to surface-expressed human TLR3” value in assay [1] is “strong binding”. Further, the “inhibition … compared with antibody 31C3” value in the assay with human TLR3 is listed as “more potent”. For the same molecule, in the assay with TLR3 mutant polypeptides, the “binding … K182E or N196A” value is “did not show any loss of binding”; the “binding to TLR3 in presence” value was “bound TLR3”.

B5: 32C4: rat anti-human TLR3 monoclonal antibody; VH SEQ ID NO: 25, VL SEQ ID NO: 26 (antibody, listed as Rattus norvegicus, V domains shown)
VH: EVQLQQYGAELGKPGTSVKLSCKVSGYNIWSTYIYWVNQRPGKGLEWIGRIDPANGNTIYAEKFKTKATLTADTSSNTAYMQLSQLKSDDTAIYFCAMGDHGGYVMDAWGQGASVTVSS
VL: DIQMTQSPGSLSASLGETVSIECLASEDIYSYLAWYQQKPGKSPQLLIYAANRLEDGVPSRFSGSGSGTQYSLKISGMQPEDEGDYFCLQGSEFPYTFGTGTKLELK
On to B5, for which the “binding to surface-expressed human TLR3” value in assay [1] is listed as “strong binding”. Further, the “inhibition … compared with antibody 31C3” value with human TLR3 is listed as “more potent”. In addition, in the assay on TLR3 mutant polypeptides, the “binding … K182E or N196A” value is given as “did not show any loss of binding”; the “binding to TLR3 in presence” value was “bound TLR3”.
